Measured values published in the DeepSol protein solubility set.

test: soluble on expression in E. coli; label from the status in PepcDB or PDB records

Question: With “MSDNKESKKISIEIDGKDYQALPNQSIIEVADANGIYIPRFCYHKKLSVAANCRMCLVDVEGARRASPACATPVMDGMKVKTRSEEALQMQKDVMEFLLINHPLDCPICDQGGECELQDIAMGYGNTTSEYLESKRTVEDPELGPLVATDMTRCILCTRCVRFGEEIAGVKELGVMGRGDHSAISTYISGEMVDSEISANIIDLCPVGALTSKPFRFKARSWELKQFPTLSAGDALATEINAHIYQNKLVRVVPRENDITGTWIADRDRFEYTGLYSQDRIQQPMIKKTGDWVDLSWEEALDFVKVAIQKTIEKDGADAISAIVSETATSEEMYLTKKLLAAVGSVNIDARVRQYADIPGISAGKGLSCSLEDIRESDFILVFGSNIRKEYPLVNIAIKDAVEKNAAKAVAWNVCDYNFNYDIKQVRLAADNIQYIALSLLKAIFVRANLPYGDLDEILRKVDPAAEVRDVADRIVAAKAPKIIIGQDIVNTSGFETVFSILDVLEKVTSVRGGVLATNVNSVAADRIFSSSKSKFSTYKCLNGRTNTKLLLTVHTELAKDSLYGEQKLRNALENIDIVVSFTAFADKFTKDTADIILPIATHYETSGSFVDLFGNRKEFKQVVKPYAGNKELWRVLRVLGNLLELEGFDYNSIAEVTNDAYATRARVGVNHVTQILNANLDYQKEVAFVASNSMYSTTSLLRRAEPLQKTTDAKRFAGVRISQELADEIGLKGQSGVIKIYNIDNEINPEVVVDPSLQAKNIMLPRALFKDFLSSDNISIKLVEEER” as the sequence, how does the “soluble on expression in E. coli” value read?
Answer: not soluble

Question: With “MSLQICQGNGEFVHLLENSKGSPESFASAYSQSMRLTNGEFLCYHISTDYKSISFYNFKNASDGRTIIIHLPAKLMHEHHTLVVEEQEGVIVVDVILESSAFLTMRLPLEYIFGIENVLDDNWLSMQSPYDFTVRRPHLLHKVSQDFFVVFLEDGGLLGLRQHNENYLEPLLFNDYSYIQTLTSMFSRKKKQPADRAVACLVIHDKYLVVLTRLCHLKIWDLGSFHLVQEYNLTENFNGTLETIEYESNGNYISTLNDVIVIYLPIGNGVFKFGRLSFTNDGERKPTFNMFSSIDANMKKSTIWSFVDMKLTDPLELNFTSTTFNLIILWKSGSNSKLQILNIKDSSFSDFEWIEASNKSLQNFQTEEISALIQNYDFDKALYKLKSHYSDMTFKEADSLLLANNIVYSENNETQQQQYLANLDTLLRDINNNHSEIASFTIYKNDMILVNTHNLYNHGFYKINSSLENIYFNLSEITEGHHHHHH” as the sequence, how does the “soluble on expression in E. coli” value read?
Answer: soluble

Question: With “HSGEDLPMVAPGNVRVNVVNSTLAEVHWDPVPLKSIRGHLQGYRIYYWKTQSSSKRNRRHIEKKILTFQGSKTHGMLPGLEPFSHYTLNVRVVNGKGEGPASPDRVFNTPEG” as the sequence, how does the “soluble on expression in E. coli” value read?
Answer: soluble

Question: For “MRIQIRYDDIDYLGHVNNARFLAYFEIGRLSYMKRFFNTRSAKDISMVIARAELDFERSVMFEDDIFVRTWISRVGNRSFDFSYTIEDDGGTVFCRGRTVNVFVEDGKPVSVPDFVKDLVISDVKT”, which “soluble on expression in E. coli” value is on record?
Answer: not soluble

Question: For “AARRKIAKDLGKQVTQAMQTLSMQGGRFEAALTGGAPSAHGSEQVEFLVAGHAGSTPRPLAKVASGGELSRISLALSVIASRAARVPTLIFDEVDSGVGGAVAEAVGKLLRELGQRHQVLCVTHLPQVAACAHAQYRVSKVESGGSTRSRIAELDAEARVEEVARMLGGIKITATTRDHAREMLGGHTAPAA”, which “soluble on expression in E. coli” value is on record?
Answer: not soluble

Question: For “MERVSITERPDWREKAHEYGFNFHTMYGEPYWCEDAYYKLTLAQVEKLEEVTAELHQMCLKVVEKVIASDELMTKFRIPKHTWSFVRQSWLTHQPSLYSRLDLAWDGTGEPKLLENNADTPTSLYEAAFFQWIWLEDQLNAGNLPEGSDQFNSLQEKLIDRFVELREQYGFQLLHLTCCRDTVEDRGTIQYLQDCATEAEIATEFLYIDDIGLGEKGQFTDLQDQVISNLFKLYPWEFMLREMFSTKLEDAGVRWLEPAWKSIISNKALLPLLWEMFPNHPNLLPAYFAEDDHPQMEKYVVKPIFSREGANVSIIENGKTIEAAEGPYGEEGMIVQQFHPLPKFGDSYMLIGSWLVNDQPAGIGIREDRALITQDMSRFYPHIFVE”, which “soluble on expression in E. coli” value is on record?
Answer: soluble

Question: Which “soluble on expression in E. coli” value does the source give for “MGSDKIHHHHHHMRQVLQKDKRDVQLSKALSYLLRHTAVKEKLTIDSNGYTPLKELLSHNRLKTHKCTVDDIHRIVKENDKQRFHIKTLGADEEWICATQGHSIKSIQPSDEVLVPITEASQLPQELIHGTNLQSVIKIIESGAISPMSRNHVHLSPGMLHAKGVISGMRSSSNVYIFIDCHSPLFFQTLKMFRSLNNVYLSSSIPVELIQKVVVKGNLKDEEKLDTLRRILHERNIPLEKI” here?
Answer: not soluble

Question: With “MGSDKIHHHHHHMNKNPEIQFRSPEEIKAYQESRLAEELLYLQNHSRFYQHLFQAYHIDIQQIKTIEDLQQIPVTTKTDLQLHNEDFICVSRDEIIDYVTTSGTLGDPVTFVLTSEDLDRLAYNEYLSFTTTGCSRQDILQLMTTIDRRFMAGLAYYMGARELGMGVARVGNGIPELQWDTIRRIHPTCGMVVPSFLIKLIEFAEKNHIDYHHCSMQKCVCIGEALRNPDFTLNTLGKRIHEKWDSLQLYSTYASTEMQSSFTECNEFHGGHLQPELIIVEFLDDNNQPVKEGEAGEVTITTLGVRGMPLLRFKTGDICYHYTEPCACGRNTIRLSSILGRKGQMIKYKGTTLYPPALFDILDNIPHIKNYIVEVYTNELGTDEILIRIGSENRSEAFAKEIKDLFRSKVRVAPSINFESAEYIAKIQMPPMSRKIVKFIDLR” as the sequence, how does the “soluble on expression in E. coli” value read?
Answer: not soluble

Question: With “GNFYAVRKGRETGIYNTWNECKNQVDGYGGAIYKKFNSYEQAKSFLG” as the sequence, how does the “soluble on expression in E. coli” value read?
Answer: soluble

Question: Which “soluble on expression in E. coli” value does the source give for “MSSSLFAPTIETIDYPFPPKPVPLSDAQKADYKARIKQLLIEKDAVLVAHYYTDPEIQALAEETGGCVSDSLEMARFGRDHPAKTLIVAGVKFMGETAKILSPEKTILMPTLEATCSLDLGCPIDKFSAFCDAHPDHTVVVYANTSAAVKARADWVVTSSIALEIVEHLDSEGKKIIWGPDRHLGSYIAKQTGAEMLMWQGDCIVHDEFKANALRDLKSVYPDAAILVHPESPASVVAMADAVGSTSQLIKAAQTMPNERFIVATDRGIFYKMQQAAPGKTLIEAPTGGNGATCKSCAHCPWMAMNGLKAIEASLSNSDKTTHEIFVDEDLRVKALIPLTRMLDFAKTLNMKVKGNA” here?
Answer: soluble

Question: For “TQLHATRQAIVEAGQAIKMDKNGVQKLPVLNIYNEQQKWQKHQLMVENLPLNQVLQELDRNYKGKIIFNDAALQHVRVNAVLPLDQTTESLKLLATVFPDLKIKQIMPFVVMVSLK”, which “soluble on expression in E. coli” value is on record?
Answer: not soluble

Question: For “MSQQYVYSMLRVSKVVPPQKTIIKDISLSFFPGAKIGLLGLNGAGKSTVLRIMAGVDKEFEGEAVPMGGIKIGYLPQEPELDPEKTVREEVESGLGEVAAAQKRLEEVYAEYANPDADFDALAEEQGRLEAIIAAGSSTGGGAEHELEIAADALRLPEW”, which “soluble on expression in E. coli” value is on record?
Answer: not soluble

Question: For “MGSDKIHHHHHHMLPALWVAKTGLSAQDTNLTVISNNLANVSTTGFKRDRAEFADLLYQIKRQPGAQSTQDSELPSGLQVGTGVRIVGTQKSFVAGSLQTTDNPLDMAVNGRGFFQILQPDGTVSYTRDGTFHLNSDGQIVTDNGYALEPAIVVPNDAQTFTVGQDGTVSITTAGNPAAQVIGNIQTADFINPAGLQAIGDNLFLETAASGAPQVGTPGLNGFGTTLQQTLENSNVSTVEELVNMITTQRAYEMNSKVISTADQMLSFVTQQL”, which “soluble on expression in E. coli” value is on record?
Answer: not soluble

Question: For “MGSDKIHHHHHHMNAVPQWRLAGDWFDICSCDIPCPCEFAQRPTGNHCQGVLAWHVREGQYGDVKLDGLTLVALGEFEGNLWAGEAKAVMGMYLDEKANESQREALQAIFGGHAGGWPAGFAANVGEMRGMEFVPITFEVAGDLATWRVEIPGLVVGRVEALSGPTTPPGKRVQTINPPGSEVGPGQVATWGRSVEVSTKGFGLDWIGTARSSKHIPFDWTGPS”, which “soluble on expression in E. coli” value is on record?
Answer: not soluble

Question: With “MSLSTGDASGAPAVWSHGYTEASGVKNKLCVAALSVNNFCDNREALYGVFDGDRNVEVPYLLQCTMSDILAEELQKTKNEEEYMVNTFIVMQRKLGTAGQKLGGAAVLCHIKHDPVDPGGSFTLTSANVGKCQTVLCRNGKPLPLSRSYIMSCEEELKRIKQHKAIITEDGKVNGVTESTRILGYTFLHPSVVPRPHVQSVLLTPQDEFFILGSKGLWDSLSVEEAVEAVRNVPDALAAAKKLCTLAQSYGCHDSISAVVVQLSVTEDEGHHHHHH” as the sequence, how does the “soluble on expression in E. coli” value read?
Answer: soluble

Question: With “MGSDKIHHHHHHMEALRRRIETQVMSLTGLALGQLDLESPKGDPGLFGPHSISWRVHGDFPSMLVGGISALMLQLLHPLALAGVWDHSNFREDLLGRLRRTSQFISGTTFGATGDAEWLIDKVRTIHLQVTGTAPDGRPYAASDPDLLTWVHVAEVSRFLAAHLRYRNPRLPRAEQDAYYNEIALIAERLGARDVPRSCQQVEDYLQHIRPQLHCDARSHEVIRILLDAPAPSRLAQPVGKLMLHAGIDLLPGWAQALLGLQHGPLQQRLIRLGLRRTAPVLRWAMRDGSAHRAKRRMGID” as the sequence, how does the “soluble on expression in E. coli” value read?
Answer: not soluble

Question: For “MAHHHHHHMGLMLPKPILSKVVDRAGNSFVNAACASQNGFRNSMEDAHMLVATDDADVAYFGIFDGHSNAECSAYVARELPQRLKKLPESITAEMLEKVCIEVDEAYMKTSTEGGTTGTFCVIRKDLTVTIANVGDSRILVCRGGKLIFATEDHKPYIPGETERIVACGGSVVSNRVDGDLAVSRAFGDASFKVKGTKDYRMQKVIAVPDVSVLQCEPNDFIILACDGVFEGNFSNEDVCQFVWEQQQNCWDDLAVVACRVCDEAIRCGSKDNISCLVVQLAEGASRVKAFGATSFVPGPPFPRNQQPCRAAYAQMAELGHTTTAAALQTRYQLLQAFSKNKLNSQPPVMRTAFEMSDEVDVETEWSFFGKGPAPGNEKNFFEALANTGNSS”, which “soluble on expression in E. coli” value is on record?
Answer: soluble

Question: Which “soluble on expression in E. coli” value does the source give for “MSLNKYEPLFKSLTLPNGVEVRNRFVLAPLTHTSSNDDGTISDIELPYIEKRSKDVGIAINAASNVNDVGKAFPGQPSVAHDSDIEGLKELAQVMKKNGAKAIVQIHHGGAQALPELTPDGDVVAPSAISLKSFGQQKEHDAREMTAEEIEQTIRDFGEATRRAIEAGFDGVEIHGANHYLIHQFVSPYYNRRNDVWADNYKFPVAVIDEVVKAKKAHAYDDFIIGYRLSPEEAESPGISMEITEELIHQIANKPLDYIHVSLMDVNSVTREGKYKGENRLELIHQWINGRMPLIGIGSVFTAEDALNAVENIGVEFVALGCEILLDYDFVAKIKEGREDEIINAFDPNREDQHYLTPNLWEQFNQGFYPLPRKDKEGHHHHHH” here?
Answer: soluble

Question: Which “soluble on expression in E. coli” value does the source give for “MSLSGKIRVDIPPCLANSLIMPRLPTFLHQYPGIALELCSSDRQVDLLREDFDCVVRTEPLHAPGILTRPLGKLRRVNCASPQYLARFGYPENLDDLASHAMVHYSLTPGVSSPGFAFETPHGMQWVKTGGMLTVNSTETWHTACLAGLGIIQTPRIAVREALRAGTLIEILPQYRAAPLPVTLHYPHRRNLSRRVHLFMVWLTETIKEAAEGHHHHHH” here?
Answer: not soluble

Question: With “MGSDKIHHHHHHMAGSVIHLDENAGPPATHGLVVGVGKYPHLEGGEAPVADSDGMRQLSSPPLSARAFARWLLAEYHDPQRPLGSVSLLLSEEQPAPFVNPRTGTAHEVEVATIDNILAAVTQWYDRGDSHVDNRLVFYFCGHGISQGDDMALLAADIFADPHNPLNGALDFAGLMNGLKRCKASQQVFFLDACRSNSDVLIEASGTRFAGRTPLGAGARPLDLPRRFHIPYYATLSGDQSHARPGQVSLFTEALLKSLAGAASDDPEGDWRVNTAHLLEAIDHFMHQPCFAGMVAGVQVPAVGELPVFVLHQLAGPPVVPVYVGCDPAQDNAEAEFVCLEGGRERLRRTLNDVDDTDPESEWAIELSFGDYDFEARLGERDVRTKTITVRPVFRRVHLVKS” as the sequence, how does the “soluble on expression in E. coli” value read?
Answer: not soluble
